Results: PMC6579858

B1: myelin oligodendrocyte glycoprotein (MOG): N31A (protein)
parent chain: MASLSRPSLPSCLCSFLLLLLLQVSSSYAGQFRVIGPRHPIRALVGDEVELPCRISPGKNATGMEVGWYRPPFSRVVHLYRNGKDQDGDQAPEYRGRTELLKDAIGEGKVTLRIRNVRFSDEGGFTCFFRDHSYQEEAAMELKVEDPFYWVSPGVLVLLAVLPVLLLQITVGLIFLCLQYRLRGKLRAEIENLHRTFDPHFLRVPCWKITLFVIVPVLGPLVALIICYNWLHRRLAGQFLEELRNPF
B2: myelin oligodendrocyte glycoprotein (MOG): N31D (protein)
parent chain: MASLSRPSLPSCLCSFLLLLLLQVSSSYAGQFRVIGPRHPIRALVGDEVELPCRISPGKNATGMEVGWYRPPFSRVVHLYRNGKDQDGDQAPEYRGRTELLKDAIGEGKVTLRIRNVRFSDEGGFTCFFRDHSYQEEAAMELKVEDPFYWVSPGVLVLLAVLPVLLLQITVGLIFLCLQYRLRGKLRAEIENLHRTFDPHFLRVPCWKITLFVIVPVLGPLVALIICYNWLHRRLAGQFLEELRNPF

Assay: FACS of transfected HeLa
Settings: glycan lost; control: wild type MOG

Protein | expression_or_secretion
B1 | no change
B2 | no change
